Reference: article PMC8050384

Target: transmembrane tumor necrosis factor (tmTNF) knock-in mutant, on bone-marrow-derived macrophages of 3TG mice (TNFR1-/-, TNFR2-/-, tmTNF KI/KI) (mouse (endogenous in BMDMs)) (UniProt P06804)

## etanercept, a soluble form of TNFR2 coupled to human Fc domain (from UniProt P20333 23-257) (Fc fusion)
  internalization score of ETA-488 in 3TG BMDMs at 20 min, imaging cytometry: 0.73
